# Legend:
# [1] = target: GST‐tagged W105,107A variant of recombinant P. falciparum enolase (not stated | Plasmodium falciparum)
# [2] = target: GST‐tagged W105,107A variant of recombinant P. falciparum enolase (not stated | Plasmodium falciparum); assay: SEC; proteins with the GST tag; Superdex‐200 Increase 10/300 GL, 1 mg protein in 0.5 mL buffer; 50 mM Tris‐HCl, 150 mM NaCl, 5 mM MgCl2 pH 7.5
# [3] = target: GST‐tagged W105,107K variant of recombinant P. falciparum enolase (not stated | Plasmodium falciparum)
# [4] = target: GST‐tagged W105,107K variant of recombinant P. falciparum enolase (not stated | Plasmodium falciparum); assay: SEC; proteins with the GST tag; Superdex‐200 Increase 10/300 GL, 1 mg protein in 0.5 mL buffer; 50 mM Tris‐HCl, 150 mM NaCl, 5 mM MgCl2 pH 7.5
# [5] = target: the molecule itself; assay: cell-based or functional assay
# [6] = target: the molecule itself; assay: SEC; proteins without the GST tag; Superdex‐200 HiLoad 16/600, 1–2 mg of protein in 2 mL buffer; 50 mM Tris‐HCl, 150 mM NaCl, 5 mM MgCl2 pH 7.5; dimer to monomers
molecule,measurement,setting,value
"GST‐tagged W105,107A variant of recombinant P. falciparum enolase (enzyme)","enolase activity, V max (% of GST‐rPfeno) (% of GST‐rPfeno)",[1],22
same,stoichiometry N,[2],2
"GST‐tagged W105,107K variant of recombinant P. falciparum enolase (enzyme)","enolase activity, V max (% of GST‐rPfeno) (% of GST‐rPfeno)",[3],33
same,stoichiometry N,[4],2
"W105,107A variant of recombinant P. falciparum enolase, GST tag removed (enzyme, Plasmodium falciparum, UniProt Q27727 1-446, looked up) MAHVITRINAREILDSRGNPTVEVDLETNLGIFRAAVPSGASTGIYEALELRDNDKSRYLGKGVQKAIKNINEIIAPKLIGMNCTEQKKIDNLMVEELDGSKNEAGASKSKLGANAILAISMAVCRAGAAPNKVSLYKYLAQLAGKKSDQMVLPVPCLNVINGGSHAGNKLSFQEFMIVPVGAPSFKEALRYGAEVYHTLKSEIKKKYGIDATNVGDEGGFAPNILNANEALDLLVTAIKSAGYEGKVKIAMDVAASEFYNSENKTYDLDFKTPNNDKSLVKTGAQLVDLYIDLVKKYPIVSIEDPFDQDDWENYAKLTAAIGKDVQIVGDDLLVTNPTRITKALEKNACNALLLKVNQIGSITEAIEACLLSQKNNWGVMVSHRSGETEDVFIADLVVALRTGQIKTGAPCRSERNAKYNQLLRIEESLGNNAVFAGEKFRLQLN","enolase activity, V max (% WT rPfeno)",[5],4 % of WT‐rPfeno
"recombinant P. falciparum enolase, wild type (WT‐rPfeno), GST tag removed (enzyme, Plasmodium falciparum, UniProt Q27727 1-446, looked up, Plasmodium falciparum enolase (Pfeno), UniProt Q27727, 446 amino acids; also called Plasmodium falciparum enolase; source: E. coli BL21 (DE3), pGEX4T1, purified on glutathione Sepharose, GST tag cut off with thrombin) MAHVITRINAREILDSRGNPTVEVDLETNLGIFRAAVPSGASTGIYEALELRDNDKSRYLGKGVQKAIKNINEIIAPKLIGMNCTEQKKIDNLMVEELDGSKNEWGWSKSKLGANAILAISMAVCRAGAAPNKVSLYKYLAQLAGKKSDQMVLPVPCLNVINGGSHAGNKLSFQEFMIVPVGAPSFKEALRYGAEVYHTLKSEIKKKYGIDATNVGDEGGFAPNILNANEALDLLVTAIKSAGYEGKVKIAMDVAASEFYNSENKTYDLDFKTPNNDKSLVKTGAQLVDLYIDLVKKYPIVSIEDPFDQDDWENYAKLTAAIGKDVQIVGDDLLVTNPTRITKALEKNACNALLLKVNQIGSITEAIEACLLSQKNNWGVMVSHRSGETEDVFIADLVVALRTGQIKTGAPCRSERNAKYNQLLRIEESLGNNAVFAGEKFRLQLN",stoichiometry N,[6],2

# Source: publication PMC5494301, “Functions of tryptophan residues in EWGWS insert of Plasmodium falciparum enolase” (FEBS Open Bio, 2017)
